Several values for one entry are separate records, joined by “and”; a condition that tells them apart may be missing. Equal values may be shown once. Read-outs that look alike come from different tables or passages of the source.
Legend:
[1] = for solubility: equilibrium with crystals, UV 280 nm
Method: (§1) Precise temperature control was achieved by using incubators held at a constant temperature. Citric acid buffer (0.1 M) was prepared at different pH levels by varying the ratio between citric acid and tri-sodium citrate. The pH was determined using a Jenway 4330 pH and conductivity meter (Jenway, UK) with an instrument resolution of around ±0.02 pH units. Zinc sulfate (ZnSO4), zinc chloride (ZnCl2), or zinc acetate (ZnAc) were dissolved in citric acid buffer as a zinc salt stock solution. […] Each experimental condition was repeated multiple times, and the error bars represent the deviation between these repetitions. The desupersaturation (crystallization occurs and the solution concentration decreases) was monitored by measuring the UV–vis absorption at a wavelength of 280 nm with a NanoDrop One^c microvolume UV–vis spectrophotometer (Thermo Fischer Scientific, USA). A sample as small as 10–20 μL was withdrawn from the crystallizer (Eppendorf tube) and was centrifuged (6000 rpm, 10–20 min). […] An extinction coefficient of 1.04 mL·mg^–1·cm^–1 was utilized.[32] Multiple dilutions for every sample were made to minimize dilution errors. The crystal slurry which remained in the centrifuged sample was observed underneath an optical microscope (CX-41, Olympus, Japan) to confirm that the decrease in concentration is because of crystallization and not due to other phenomena, such as amorphous precipitation.
(§2) This lag time is commonly termed as induction time.[33] We found the induction time graphically by finding the intersection between the tangents of the point of inflection (tangent of the biggest gradient after the solution concentration dropped substantially) and the initial concentration (which stays constant until the solution concentration drops substantially). A graphical visualization and a detailed definition and justification of induction time can be found in the Supporting Information.
To ensure that the true solubility concentration was measured, the samples were gently mixed frequently with pipettes once the crystallization experiment had finished. […] Once the concentration had stabilized, that is, no significant change over multiple days, this concentration was taken as solubility.

[2] = Dynamic light scattering: diffusion coefficient and polydispersity of insulin; assay type: physicochemical; settings: DLS
Method: The solutions were prepared identically to the crystallization solutions which have been described previously. The solutions were filtered with a 0.22 μm pore size filter into a disposal cuvette (polystyrene) which then was loaded into a Zetasizer μV (Malvern, UK).

[3] = Static light scattering (Debye plot): second osmotic virial coefficient B22 and derived activity coefficient; assay type: physicochemical; settings: for B22 (second virial coefficient): SLS Debye plot, ≤ 3 mg·mL^–1, 24.0 °C
Excerpt: The procedure was identical to the DLS experiments, but instead of disposable cuvettes, a quartz cuvette was utilized. After each run, the quartz cuvette was carefully washed with deionized water, ethanol, and IPA followed by drying to remove any impurities and dust before further usage for the next sample. A solvent refractive index of 1.3304 and a refractive index increment of Δn/Δc = 0.183 were utilized.[34] The second virial coefficient was obtained by using Debye plots at low protein concentration (≤ 3 mg·mL^–1).

[4] = Insulin crystallization kinetics (desupersaturation, induction time, crystal yield); assay type: physicochemical
Method: as §1, §2
The crystal yield was calculated to evaluate the performance of crystallization. […] The yield can be either expressed in terms of concentration or supersaturation ratio, which is St = ct/c* for an ideal solution with […] at time zero. [drawing 2] 2

[5] = pH 6.0, St=0 = 10.0, ZnSO4, 24.0 °C
[6] = pH 6.0, initial insulin 3 mg·mL^–1, ZnSO4 […], 24.0 °C

Substance Human insulin has a solubility ([1]; pH 6.0, ZnSO4, 73 mM citric buffer, 7 mM HEPES, 24.0 °C) of 0.14 mg·mL^–1, an increase in solubility ([1]; pH 6.0 to pH 6.7, ZnSO4, 24.0 °C) of 5 fold and a solubility ([1]; pH 6.5, ZnSO4, 73 mM citric buffer, 7 mM HEPES, 24.0 °C) of 0.41 mg·mL^–1. The increase in solubility ([1]; pH 6.5 to pH 6.7 (0.2 pH units), ZnSO4, 24.0 °C) was “roughly 70%”, the “insulin equilibrium concentration (solubility c*)” value ([1]; pH 6.7, ZnSO4 (SO4^2– anion), thermodynamic, equilibrium with crystals after crystallization, 73 mM citric buffer, 7 mM HEPES, 24.0 °C, monitored up to 4 weeks, UV 280 nm of centrifuged supernatant) was 0.70 mg·mL^–1 and 0.70 ± 0.03 mg·mL^–1 and the diffusion coefficient ([2]; pH 6.0, lower end of insulin concentrations probed, 24.0 °C) was 0.99 × 10^–6 cm^2·s^–1. For the same substance, the diffusion coefficient ([2]; pH 6.0, upper end of insulin concentrations probed, 24.0 °C) was 0.86 × 10^–6 cm^2·s^–1, the diffusion coefficient ([2]; pH 6.7, Ac^2– anion, cins = 3 mg·mL^–1, 24.0 °C) was 0.87 ± 0.1·10^–3 10^–6 cm^2·s^–1 and the diffusion coefficient ([2]; pH 6.7, Cl^– anion, cins = 3 mg·mL^–1, 24.0 °C) was 0.87 ± 0.5·10^–3 10^–6 cm^2·s^–1. For the same substance, the “B22 (second virial coefficient)” value ([3]; pH 6.0) was “–4.23 × 10^–4 mL·mol·g^–2”, the “B22 (second virial coefficient)” value ([3]; pH 6.2) was “–2.47 × 10^–4 mL·mol·g^–2” and the “B22 (second virial coefficient)” value ([3]; pH 6.5) was “–4.18 × 10^–4 mL·mol·g^–2”. The “B22 (second virial coefficient)” value ([3]; pH 6.7) was “–4.0 × 10^–4 mL·mol·g^–2”, the “γ (activity coefficient)” value ([3]; pH 6.7, calculated from B22 with eq 4, 24.0 °C) was 0.96 and the “desupersaturation rate after a yield of 85% was achieved” value ([4]; St=0 = 10.0, pH 6.0) was 0.03 h^–1. The “desupersaturation rate after a yield of 85% was achieved” value ([4]; St=0 = 10.0, pH 6.2) was 0.01 h^–1, the “desupersaturation rate after a yield of 85% was achieved” value ([4]; St=0 = 10.0, pH 6.5) was 0.07 h^–1 and the “desupersaturation rate after a yield of 85% was achieved” value ([4]; St=0 = 10.0, pH 6.7) was 0.02 h^–1. The “t50% (time required to achieve a yield of 50%)” value ([4]; pH 6.0, St=0 = 5.6) was 128.0 h, the induction time ([4]; pH 6.0, St=0 = 5.6, ZnSO4, 24.0 °C) was 81.0 h and the “crystallization rate ΔS/Δt” value [4, 5] was 0.18 h^–1. For the same substance, the induction time [4, 5] was 26.5 h, the “time after which the concentration drops” value [4, 6] was 4.0 h and the “time to reach quasi-equilibrium concentration” value [4, 6] was “roughly 20.0 h”. For the same substance, the “reduction in induction time” value ([4]; pH 6.0, initial supersaturation ratio increased from 5.6 to 10.0) was 67%, the “decrease in induction time” value ([4]; pH 6.0 to pH 6.7 at St=0 = 7.4) was “roughly 81%” and the “decrease in induction time” value ([4]; pH 6.0 to pH 6.7 at St=0 = 10.0) was roughly 88%. The “reduction in induction time” value ([4]; pH 6.5, initial supersaturation ratio increased from 5.6 to 10.0) was 77%, the “crystallization rate ΔS/Δt” value ([4]; pH 6.7, St=0 = 5.7, 12.0 h to 41.0 h, ZnSO4, 24.0 °C) was 0.13 h^–1 and the “crystallization rate ΔS/Δt” value ([4]; pH 6.7, St=0 = 10.0, 1.3 h to 26.0 h, ZnSO4, 24.0 °C) was 0.32 h^–1. The “time to reach quasi-equilibrium concentration” value ([4]; pH 6.7, initial insulin 3 mg·mL^–1, ZnSO4 […], 24.0 °C) was roughly 80.0 h.
